Laboratory results: patent publication US20240000885A1 (VANDERBILT UNIVERSITY, published 2024)

Columns and labels:
[1] = molecular target: MHV M cytoplasmic tail (amino acids 105-228), GAL4-BD fusion (mouse hepatitis coronavirus strain A59, UniProt P04386 1-147); test: binary yeast 2-hybrid
[2] = molecular target: MHV M tail with truncation of 40 carboxyl-terminal amino acids (mouse hepatitis coronavirus strain A59, UniProt P04386 1-147); test: binary yeast 2-hybrid

Row | Binder | binding result [1] | binding result [2]
1 | pAD-MYO5B(ABCE) (other) GSPDSYSLLLNQLKLAHEELEVRKEEVLILRTQIVSADQRRLAGRNAEPNINARSSWPNSEKHVDQEDAIEAYHGVCQTNRLLEAQLQAQSLEHEEEVEHLKAQLEALKEEMDKQQQTFCQTLLLSPEAQVEFGVQQEISRLTNENLDLKELVEKLEKNERKLKKQLKIYMKKAQDLEA | no binding | –
2 | pAD-MYO5B(ABCDE) (other, also called MYO5B ABCDE exons; construct containing just the ABCDE exons) GSPDSYSLLLNQLKLAHEELEVRKEEVLILRTQIVSADQRRLAGRNAEPNINARSSWPNSEKHVDQEDAIEAYHGVCQTNSKTEDWGYLNEDGELGLAYQGLKQVARLLEAQLQAQSLEHEEEVEHLKAQLEALKEEMDKQQQTFCQTLLLSPEAQVEFGVQQEISRLTNENLDLKELVEKLEKNERKLKKQLKIYMKKAQDLEA | – | no binding
